Measurements: patent US20150174203A1 (ICAHN SCHOOL OF MEDICINE AT MOUNT SINAI, published 2015)
Blank lines part the entries; values can stand above or below the binder they belong to.

B2: human Angptl-2 with FLAG tag at the C-terminus, mammalian-expressed (ligand, not shown: small tags and cut ends)
chain: QEDGFEGTEEGSPREFIYLNRYKRAGESQDKCTYTFIVPQQRVTGAICVNSKEPEVLLENRVHKQELELLNNELLKQKRQIETLQQLVEVDGGIVSEVKLLRKESRNMNSRVTQLYMQLLHEIIRKRDNALELSQLENRILNQTADMLQLASKYKDLEHKYQHLATLAHNQSEIIAQLEEHCQRVPSARPVPQPPPAAPPRVYQPPTYNRIINQISTNEIQSDQNLKVLPPPLPTMPTLTSLPSSTDKPSGPWRDCLQALEDGHDTSSIYLVKPENTNRLMQVWCDQRHDPGGWTVIQRRLDGSVNFFRNWETYKQGFGNIDGEYWLGLENIYWLTNQGNYKLLVTMEDWSGRKVFAEYASFRLEPESEYYKLRLGRYHGNAGDSFTWHNGKQFTTLDRDHDVYTGNCAHYQKGGWWYNACAHSNLNGVWYRGGHYRSRYQDGVYWAEFRGGSYSLKKVVMMIRPNPNTFH
notes: also called Angptl-2-FLAG; A2-Flag (mammalian)
B3: LILRA2 (receptor, UniProt Q8N149 24-483, looked up)
chain: GHLPKPTLWAEPGSVIIQGSPVTLRCQGSLQAEEYHLYRENKSASWVRRIQEPGKNGQFPIPSITWEHAGRYHCQYYSHNHSSEYSDPLELVVTGAYSKPTLSALPSPVVTSGGNVTLQCVSQVAFDGFILCKEGEDEHPQRLNSHSHARGWSWAIFSVGPVSPSRRWSYRCYAYDSNSPYVWSLPSDLLELLVPGVSKKPSLSVQPGPMVAPGESLTLQCVSDVGYDRFVLYKEGERDFLQRPGWQPQAGLSQANFTLGPVSPSHGGQYRCYSAHNLSSEWSAPSDPLDILITGQFYDRPSLSVQPVPTVAPGKNVTLLCQSRGQFHTFLLTKEGAGHPPLHLRSEHQAQQNQAEFRMGPVTSAHVGTYRCYSSLSSNPYLLSLPSDPLELVVSEAAETLSPSQNKTDSTTTSLGQHPQDYTVENLIRMGVAGLVLVVLGILLFEAQHSQRSLQDAAGR
notes: whole, on cells

Tests used:
human LILRB2 = target: T1, human LILRB2 (human, UniProt Q8N423 22-597); experiment: flow cytometry on human cord blood LILRB2+ cells
T1 construct: also called leukocyte immunoglobulin-like receptor B2
T1 sequence (Q8N423 22-597 D161E/M235V limits assumed): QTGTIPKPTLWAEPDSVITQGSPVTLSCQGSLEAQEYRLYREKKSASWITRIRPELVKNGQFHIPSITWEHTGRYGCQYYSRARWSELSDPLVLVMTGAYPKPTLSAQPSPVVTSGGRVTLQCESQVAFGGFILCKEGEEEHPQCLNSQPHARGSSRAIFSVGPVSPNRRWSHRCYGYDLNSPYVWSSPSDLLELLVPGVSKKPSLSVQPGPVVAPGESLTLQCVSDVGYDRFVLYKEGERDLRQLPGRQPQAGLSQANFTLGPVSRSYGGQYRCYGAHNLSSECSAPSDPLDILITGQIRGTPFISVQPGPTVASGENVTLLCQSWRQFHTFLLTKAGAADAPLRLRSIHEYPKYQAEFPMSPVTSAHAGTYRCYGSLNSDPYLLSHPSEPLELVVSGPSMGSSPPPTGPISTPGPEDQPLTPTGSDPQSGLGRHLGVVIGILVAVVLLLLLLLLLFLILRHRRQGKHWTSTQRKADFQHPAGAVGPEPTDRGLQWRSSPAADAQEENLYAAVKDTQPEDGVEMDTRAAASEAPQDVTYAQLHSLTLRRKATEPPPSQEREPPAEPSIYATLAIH
Experimental: (§1) Plasmids and proteins. […] Angptl-2-FLAG was purified using M2 resin. Purified GST-Angptl-5 was purchased from Abnova. Bacterially-expressed Flag-Angptl-2 and Angptl-2-Flag were constructed in pET-26b(+) vector, and GST-Angptls-FLAG in pGEX vector, and expressed and purified from bacteria. […] Anti-LILRB2-PE was used as indicated. The cells were analyzed using either a FACSCalibur or FACSAria instrument (Becton Dickinson).

LILRA4 = target: T2, LILRA4 (UniProt P59901 24-499, limits assumed); experiment: flow cytometry on transfected 293T cells
T2 construct: whole, on cells
T2 sequence (P59901 24-499 limits assumed): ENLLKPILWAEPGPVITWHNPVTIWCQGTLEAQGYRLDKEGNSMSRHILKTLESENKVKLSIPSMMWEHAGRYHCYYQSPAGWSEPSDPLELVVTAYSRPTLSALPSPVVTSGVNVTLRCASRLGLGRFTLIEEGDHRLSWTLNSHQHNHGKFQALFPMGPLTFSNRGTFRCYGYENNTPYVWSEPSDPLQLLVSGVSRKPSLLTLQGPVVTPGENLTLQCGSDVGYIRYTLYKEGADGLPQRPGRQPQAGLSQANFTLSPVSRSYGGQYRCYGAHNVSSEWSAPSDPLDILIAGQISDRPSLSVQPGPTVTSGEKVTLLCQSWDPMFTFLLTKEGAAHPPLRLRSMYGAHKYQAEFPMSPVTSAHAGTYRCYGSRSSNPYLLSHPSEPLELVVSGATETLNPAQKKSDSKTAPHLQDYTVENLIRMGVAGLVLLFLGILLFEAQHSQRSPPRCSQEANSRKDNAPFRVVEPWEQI
Experimental: as §1

LILRB1 = target: T3, LILRB1 (human, UniProt Q8NHL6 24-650); experiment: flow cytometry on transfected 293T cells
T3 construct: also called leukocyte immunoglobulin-like receptor B1
T3 sequence (Q8NHL6 other isoform, or with tags, fused parts or gaps limits assumed): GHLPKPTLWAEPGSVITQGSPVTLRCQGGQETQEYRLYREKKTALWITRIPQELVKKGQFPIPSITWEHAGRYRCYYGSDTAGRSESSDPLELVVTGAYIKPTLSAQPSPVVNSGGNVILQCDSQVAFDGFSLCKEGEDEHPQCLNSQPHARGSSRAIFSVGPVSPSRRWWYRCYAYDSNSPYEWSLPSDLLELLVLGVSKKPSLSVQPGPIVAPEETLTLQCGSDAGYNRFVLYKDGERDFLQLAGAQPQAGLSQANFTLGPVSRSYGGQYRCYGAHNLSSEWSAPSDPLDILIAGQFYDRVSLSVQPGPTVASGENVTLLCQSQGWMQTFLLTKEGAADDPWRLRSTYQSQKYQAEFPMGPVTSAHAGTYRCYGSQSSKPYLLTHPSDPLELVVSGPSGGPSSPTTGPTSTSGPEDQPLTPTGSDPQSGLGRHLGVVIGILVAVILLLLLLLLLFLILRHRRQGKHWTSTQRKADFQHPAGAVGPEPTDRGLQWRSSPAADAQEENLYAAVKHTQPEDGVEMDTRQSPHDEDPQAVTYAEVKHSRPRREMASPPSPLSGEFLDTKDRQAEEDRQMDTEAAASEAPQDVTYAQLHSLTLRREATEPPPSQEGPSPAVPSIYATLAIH
Experimental: as §1

LILRA1 = target: T4, LILRA1 (UniProt O75019 17-489, limits assumed); experiment: flow cytometry on transfected 293T cells
T4 construct: whole, on cells
T4 sequence (O75019 17-489 limits assumed): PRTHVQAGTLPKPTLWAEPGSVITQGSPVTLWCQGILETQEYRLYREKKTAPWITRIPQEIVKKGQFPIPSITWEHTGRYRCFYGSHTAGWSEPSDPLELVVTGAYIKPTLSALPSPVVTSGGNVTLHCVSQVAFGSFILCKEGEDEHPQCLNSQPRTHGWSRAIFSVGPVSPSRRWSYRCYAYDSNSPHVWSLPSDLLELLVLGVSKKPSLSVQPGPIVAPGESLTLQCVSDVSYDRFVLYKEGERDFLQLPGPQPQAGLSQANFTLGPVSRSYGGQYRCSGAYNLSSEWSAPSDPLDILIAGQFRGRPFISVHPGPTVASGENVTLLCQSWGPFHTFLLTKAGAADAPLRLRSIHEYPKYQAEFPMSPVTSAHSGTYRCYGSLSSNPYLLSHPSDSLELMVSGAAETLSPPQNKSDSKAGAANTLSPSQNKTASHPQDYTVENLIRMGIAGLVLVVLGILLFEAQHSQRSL
Experimental: as §1

[1] = target: B2; experiment: flow cytometry on transfected 293T cells
Experimental: as §1

[2] = target: T5, human Angptl-7 with FLAG tag at the C-terminus (human, UniProt O43827 27-346); experiment: flow cytometry, 293T cells transfected with mouse LAIR1, anti-FLAG-APC against anti-LAIR1-PE; left gate of the same panel 56; Control panel 14 (left) and 15 (right)
T5 construct: not shown: FLAG tag at the C-terminus
T5 sequence: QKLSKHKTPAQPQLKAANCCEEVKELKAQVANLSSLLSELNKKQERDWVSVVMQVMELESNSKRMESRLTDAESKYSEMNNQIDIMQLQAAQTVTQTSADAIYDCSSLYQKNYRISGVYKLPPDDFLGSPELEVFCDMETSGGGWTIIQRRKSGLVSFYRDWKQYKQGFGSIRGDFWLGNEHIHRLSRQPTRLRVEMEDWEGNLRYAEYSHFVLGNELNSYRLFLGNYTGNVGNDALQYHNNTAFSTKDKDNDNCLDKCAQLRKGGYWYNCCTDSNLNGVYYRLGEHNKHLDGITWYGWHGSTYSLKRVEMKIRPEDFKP
Experimental: as §1

[3] = target: T6, paired immunoglobulin-like receptor B (PirB) (mouse, UniProt P97484 25-841); experiment: flow cytometry, PirB-transfected 293T cells, GST-Angptl-5-FLAG according to the legend, Angptl binding against PirB staining; left gate of the same panel 46; Control panel 123 (left) and 183 (right)
T6 construct: whole, on cells
T6 sequence (looked up): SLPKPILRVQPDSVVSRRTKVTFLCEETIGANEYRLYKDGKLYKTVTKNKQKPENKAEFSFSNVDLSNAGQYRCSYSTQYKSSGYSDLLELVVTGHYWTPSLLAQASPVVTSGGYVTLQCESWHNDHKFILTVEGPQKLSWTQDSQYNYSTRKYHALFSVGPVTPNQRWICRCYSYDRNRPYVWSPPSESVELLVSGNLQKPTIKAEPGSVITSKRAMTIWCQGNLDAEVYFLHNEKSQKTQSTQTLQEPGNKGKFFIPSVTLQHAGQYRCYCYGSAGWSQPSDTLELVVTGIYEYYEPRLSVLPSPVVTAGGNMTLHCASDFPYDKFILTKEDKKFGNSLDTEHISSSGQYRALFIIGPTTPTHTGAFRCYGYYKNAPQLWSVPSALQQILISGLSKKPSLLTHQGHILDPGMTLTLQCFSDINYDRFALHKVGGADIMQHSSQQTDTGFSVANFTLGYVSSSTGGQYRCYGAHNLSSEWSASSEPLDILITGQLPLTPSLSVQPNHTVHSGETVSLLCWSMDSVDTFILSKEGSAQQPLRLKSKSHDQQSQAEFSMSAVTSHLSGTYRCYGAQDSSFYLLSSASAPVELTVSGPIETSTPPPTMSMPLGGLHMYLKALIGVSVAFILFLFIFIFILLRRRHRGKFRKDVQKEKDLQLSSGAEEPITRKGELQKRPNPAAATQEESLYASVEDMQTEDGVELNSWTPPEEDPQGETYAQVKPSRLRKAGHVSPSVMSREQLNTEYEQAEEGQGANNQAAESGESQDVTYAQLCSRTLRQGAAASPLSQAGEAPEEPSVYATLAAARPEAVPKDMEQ
Experimental: as §1

[4] = target: T6, paired immunoglobulin-like receptor B …; experiment: flow cytometry on PirB-transfected 293T cells
Experimental: as §1

LILRA2 = target: B3; experiment: flow cytometry on transfected 293T cells
Experimental: as §1

LILRB3 = target: T7, LILRB3 (human, UniProt O75022 24-631); experiment: flow cytometry on transfected 293T cells
T7 construct: also called leukocyte immunoglobulin-like receptor B3
T7 sequence (O75022 other isoform, or with tags, fused parts or gaps limits assumed): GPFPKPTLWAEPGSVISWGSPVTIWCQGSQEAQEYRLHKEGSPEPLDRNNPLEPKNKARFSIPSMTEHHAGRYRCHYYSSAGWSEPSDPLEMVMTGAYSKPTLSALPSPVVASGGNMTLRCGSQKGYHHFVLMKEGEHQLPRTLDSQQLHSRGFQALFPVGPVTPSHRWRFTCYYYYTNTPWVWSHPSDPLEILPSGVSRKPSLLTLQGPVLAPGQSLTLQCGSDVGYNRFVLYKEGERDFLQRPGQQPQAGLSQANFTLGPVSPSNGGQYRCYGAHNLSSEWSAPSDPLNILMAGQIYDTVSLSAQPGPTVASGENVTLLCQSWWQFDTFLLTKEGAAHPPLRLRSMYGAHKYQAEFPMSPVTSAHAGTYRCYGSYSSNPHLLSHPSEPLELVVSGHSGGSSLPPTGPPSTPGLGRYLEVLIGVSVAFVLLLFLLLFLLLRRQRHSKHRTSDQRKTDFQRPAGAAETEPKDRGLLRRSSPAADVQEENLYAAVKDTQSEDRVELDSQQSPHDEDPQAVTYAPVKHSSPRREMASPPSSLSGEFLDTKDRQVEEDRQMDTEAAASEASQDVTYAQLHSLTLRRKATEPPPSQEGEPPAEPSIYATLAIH
Experimental: as §1

LILRB5 = target: T8, LILRB5 (human, UniProt O75023 24-590); experiment: flow cytometry on transfected 293T cells
T8 construct: also called leukocyte immunoglobulin-like receptor B5
T8 sequence (O75023 other isoform, or with tags, fused parts or gaps limits assumed): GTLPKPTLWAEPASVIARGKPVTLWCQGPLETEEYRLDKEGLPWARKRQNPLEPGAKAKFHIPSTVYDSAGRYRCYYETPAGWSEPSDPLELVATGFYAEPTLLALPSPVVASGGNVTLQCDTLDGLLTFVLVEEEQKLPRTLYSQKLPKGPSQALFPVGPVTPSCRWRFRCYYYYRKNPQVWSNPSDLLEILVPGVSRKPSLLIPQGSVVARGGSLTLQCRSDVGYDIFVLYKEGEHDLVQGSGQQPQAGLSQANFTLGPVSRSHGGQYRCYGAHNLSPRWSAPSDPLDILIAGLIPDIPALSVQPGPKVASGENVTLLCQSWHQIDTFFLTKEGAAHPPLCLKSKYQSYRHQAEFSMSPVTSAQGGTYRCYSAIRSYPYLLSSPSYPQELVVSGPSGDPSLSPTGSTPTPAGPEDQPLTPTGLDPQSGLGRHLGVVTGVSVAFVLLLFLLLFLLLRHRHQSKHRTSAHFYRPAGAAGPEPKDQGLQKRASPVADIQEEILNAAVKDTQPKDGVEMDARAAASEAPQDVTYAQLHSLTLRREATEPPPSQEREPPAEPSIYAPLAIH
Experimental: as §1

B1: GST-Angptl-3 (ligand)
chain: SRIDQDNSSFDSLSPEPKSRFAMLDDVKILANGLLQLGHGLKDFVHKTKGQINDIFQKLNIFDQSFYDLSLQTSEIKEEEKELRRTTYKLQVKNEEVKNMSLELNSKLESLLEEKILLQQKVKYLEEQLTNLIQNQPETPEHPEVTSLKTFVEKQDNSIKDLLQTVEDQYKQLNQQHSQIKEIENQLRRTSIQEPTEISLSSKPRAPRTTPFLQLNEIRNVKHDGIPAECTTIYNRGEHTSGMYAIRPSNSQVFHVYCDVISGSPWTLIQHRIDGSQNFNETWENYKYGFGRLDGEFWLGLEKIYSIVKQSNYVLRIELEDWKDNKHYIEYSFYLGNHETNYTLHLVAITGNVPNAIPENKDLVFSTWDHKAKGHFNCPEGYSGGWWWHDECGENNLNGKYNKPRAKSKPERRRGLSWKSQNGRLYSIKSTKMLIHPTDSESFE
notes: also called GST-Angptls-FLAG (Angptl-3); not shown: glutathione S-transferase (GST) tag (pGEX vector); FLAG tag (GST-Angptls-FLAG)
binding result (human LILRB2): binds

Binder: B2
binding result (LILRA4): no binding
binding result (LILRB1): no binding
binding result (LILRA1): no binding

Binder: B3
binding result [1]: no binding

B6: GST-Angptl-5 (purified, purchased from Abnova) (ligand)
chain: NCVHHSTDSSVVNIVEDGSNAKDESKSNDTVCKEDCEESCDVKTKITREEKHFMCRNLQNSIVSYTRSTKKLLRNMMDEQQASLDYLSNQVNELMNRVLLLTTEVFRKQLDPFPHRPVQSHGLDCTDIKDTIGSVTKTPSGLYIIHPEGSSYPFEVMCDMDYRGGGWTVIQKRIDGIIDFQRLWCDYLDGFGDLLGEFWLGLKKIFYIVNQKNTSFMLYVALESEDDTLAYASYDNFWLEDETRFFKMHLGRYSGNAGDAFRGLKKEDNQNAMPFSTSDVDNDGCRPACLVNGQSVKSCSHLHNKTGWWFNECGLANLNGIHHFSGKLLATGIQWGTWTKNNSPVKIKSVSMKIRRMYNPYFK
notes: Bought fusion protein; Used radio-iodinated in the liquid-phase assay; also called GST-A5 (Abnova); ^125I-GST-Angptl-5; not shown: glutathione S-transferase (GST) tag at the N-terminus
binding result [4]: binds
binding result (LILRA4): no binding
binding result (LILRA2): no binding
binding result (LILRB1): no binding
binding result (LILRB3): binds
binding result (LILRA1): no binding
binding result (LILRB5): binds

Next, values leading:

binding result [2]: binds
B4: mouse LAIR1 (receptor, UniProt Q8BG84 22-263, looked up)
chain: QEGSLPDITIFPNSSLMISQGTFVTVVCSYSDKHDLYNMVRLEKDGSTFMEKSTEPYKTEDEFEIGPVNETITGHYSCIYSKGITWSERSKTLELKVIKENVIQTPAPGPTSDTSWLKTYSIYIFTVVSVIFLLCLSALLFCFLRHRQKKQGLPNNKRQQQRPEERLNLATNGLEMTPDIVADDRLPEDRWTETWTPVAGDLQEVTYIQLDHHSLTQRAVGAVTSQSTDMAESSTYAAIIRH
notes: whole, on cells

binding result [3]: binds
B5: GST-Angptl-5-FLAG, in house, bacterially expressed (ligand)
chain: NCVHHSTDSSVVNIVEDGSNAKDESKSNDTVCKEDCEESCDVKTKITREEKHFMCRNLQNSIVSYTRSTKKLLRNMMDEQQASLDYLSNQVNELMNRVLLLTTEVFRKQLDPFPHRPVQSHGLDCTDIKDTIGSVTKTPSGLYIIHPEGSSYPFEVMCDMDYRGGGWTVIQKRIDGIIDFQRLWCDYLDGFGDLLGEFWLGLKKIFYIVNQKNTSFMLYVALESEDDTLAYASYDNFWLEDETRFFKMHLGRYSGNAGDAFRGLKKEDNQNAMPFSTSDVDNDGCRPACLVNGQSVKSCSHLHNKTGWWFNECGLANLNGIHHFSGKLLATGIQWGTWTKNNSPVKIKSVSMKIRRMYNPYFK
notes: also called GST-A5 (in house, bacterial); GST-A5-FLAG; not shown: glutathione S-transferase (GST) tag at the N-terminus (pGEX vector); FLAG tag at the C-terminus

binding result [4]: binds
B7: human Angptl-3 with FLAG tag at the C-terminus (ligand)
chain: DQDNSSFDSLSPEPKSRFAMLDDVKILANGLLQLGHGLKDFVHKTKGQINDIFQKLNIFDQSFYDLSLQTSEIKEEEKELRRTTYKLQVKNEEVKNMSLELNSKLESLLEEKILLQQKVKYLEEQLTNLIQNQPETPEHPEVTSLKTFVEKQDNSIKDLLQTVEDQYKQLNQQHSQIKEIENQLRRTSIQEPTEISLSSKPRAPRTTPFLQLNEIRNVKHDGIPAECTTIYNRGEHTSGMYAIRPSNSQVFHVYCDVISGSPWTLIQHRIDGSQNFNETWENYKYGFGRLDGEFWLGLEKIYSIVKQSNYVLRIELEDWKDNKHYIEYSFYLGNHETNYTLHLVAITGNVPNAIPENKDLVFSTWDHKAKGHFNCPEGYSGGWWWHDECGENNLNGKYNKPRAKSKPERRRGLSWKSQNGRLYSIKSTKMLIHPTDSESFE
notes: not shown: FLAG tag at the C-terminus
